{
  "source": "patent US20120328625A1",
  "binders": {"B1": {"name": "rmHIP (protein, UniProt Q7TN16 18-678, looked up)", "chain": "FFEGDAKFGERNEGSGARRRRCLNGNPPKRLKRRDRRVMSQLELLSGGEILCGGFYPRVSCCLQSDSPGLGRLENKIFSATNNSECSRLLEEIQCAPCSPHSQSLFYTPERDVLDGDLALPLLCKDYCKEFFYTCRGHIPGLLQTTADEFCFYYARKDAGLCFPDFPRKQVRGPASNYLGQMEDYEKVGGISRKHKHNCLCVQEVMSGLRQPVSAVHSGDGSHRLFILEKEGYVKILTPEGELFKEPYLDIHKLVQSGIKGGDERGLLSLAFHPNYKKNGKLYVSYTTNQERWAIGPHDHILRVVEYTVSRKNPHQVDVRTARVFLEVAELHRKHLGGQLLFGPDGFLYIILGDGMITLDDMEEMDGLSDFTGSVLRLDVDTDMCNVPYSIPRSNPHFNSTNQPPEVFAHGLHDPGRCAVDRHPTDININLTILCSDSNGKNRSSARILQIIKGRDYESEPSLLEFKPFSNGPLVGGFVYRGCQSERLYGSYVFGDRNGNFLTLQQSPVTKQWQEKPLCLGASSSCRGYFSGHILGFGEDELGEVYILSSSKSMTQTHNGKLYKIVDPKRPLMPEECRVTVQPAQPLTSDCSRLCRNGYYTPTGKCCCSPGWEGDFCRIAKCEPACRHGGVCVRPNKCLCKKGYLGPQCEQVDRNVRRVTR"}},
  "key": {"[1]": {"target": "Shh-N in conditioned medium (human) (UniProt Q15465)", "assay": "cell-based or functional assay"}, "[2]": {"target": "full length human Shh expressed on the cell surface (human) (UniProt Q15465)", "assay": "cell-based or functional assay"}},
  "data": [
    {"binder": "B1", "values": [
      {"measurement": "% Inhibition of Gli1 reporter, Conditioned Media N = 1, 4 µg/ml", "setting": "[1]", "value": 103, "unit": "%"},
      {"measurement": "% Inhibition of Gli1 reporter, Conditioned Media N = 2, 4 µg/ml", "setting": "[1]", "value": 112, "unit": "%"},
      {"measurement": "% Inhibition of Gli1 reporter, Co-Culture N = 1, 4 µg/ml", "setting": "[2]", "value": 124, "unit": "%"},
      {"measurement": "% Inhibition of Gli1 reporter, Co-Culture N = 2, 4 µg/ml", "setting": "[2]", "value": 96, "unit": "%"},
      {"measurement": "% Inhibition of Gli1 reporter, Co-Culture N = 3, 4 µg/ml", "setting": "[2]", "value": 121, "unit": "%"}
    ]}
  ]
}
